Our source for the stoichiometry N values is article PMC13013481.

For the assay, the target named is RSV G central conserved cysteine-rich region peptide (Gpep, residues 149-196) (respiratory syncytial virus strain A2). In words: Tricine SDS-PAGE, non-reducing and reducing; 16% Tricine SDS-PAGE of concentrated Gpep, with or without β-mercaptoethanol and with or without heat denaturation.

“RSV G central conserved cysteine-rich region peptide (Gpep, residues 149-196)” returned a stoichiometry N of 2.

The stoichiometry N is the number of molecules, sites or subunits per partner or assembly.
